Where a chain is given by its changes, count along the chain named.
B1: LK-RB2-41 (antibody, human IgG4 S228P, kappa, V domains shown)
VH: EVQLQLSGPELVKPGASVKMSCKASGYTFTDYNMHWVKQSHGKSLEWIGYINPNNGGTTYNQKFKGKATLTVNKSSSTAYMELRSLTSEDSAVYYCARAPYYGSSYLLAYWGQGTLVTVSA
VL: DIVMTQSHKFMSTSVGDRVSITCKASQDVSTAVAWYQQKPGQSPKLLIYSASYRYTGVPDRFTGSGSGTDFTFTISSVQAEDLAIYYCQQHYSIPWTFGGGTKLEIKR
B2: LK-RB2-45 (antibody, human IgG4 S228P, kappa, V domains shown)
VH: QIQLVQSGPELKKPGETVKISCKASGYTFTTYGMSWVKQTPGKGLQWMGWINVYSGVPTYADDFKGRFAFSLEASASTAYLQINNLKNEDTASYFCARRGDYDGHYFDYWGQGTTLTVSS
VL: DIVMTQSPATLSVTPGDRVSLSCRASQSISDYLNWYQQKSHESPRLLIKYVSQSISGIPSRFSGSGSGSDFTLSINSVEPEDIGVYYCQNGHNFPLTFGGGTKLELKR
B3: J19.h1 (antibody, human IgG4 S228P, kappa, V domains shown)
VH: QITLKESGPTLVKPTQTLTLTCTFSGFSLNTYAMGVSWIRQPPGKALEWLASIWWNGNKYNNPSLKSRLTVTKDTSKNQVVLTMTNMDPVDTATYYCAHSRIIRFTDYVMDAWGQGTLVTVSS
VL: DIQMTQSPSSLSTSVGDRVTITCRASEDIYNDLAWYQQKPGKAPKLLIYNANSLHTGVASRFSGSGSGTDFTFTISSLQPEDVATYFCQQYYDYPLTFGQGTKLEIKR
B4: LK-RB2-6 (antibody, human IgG4 S228P, kappa, V domains shown)
VH: B2 VH with T40A, Q46E, V53I, A74T, S93T, G104S, H105F
VL: DIVMSQSPSSLAVSVGEKVTVSCKSSQSLLYSYNQKNYLAWYQQKPGQSPKLLIYWSSTRESGVPDRFTGSGSGTDFTLTISSVKAEDLAVYYCQQCYNYPYTFGGGTKLEIKR
B5: LK-RB2-12 (antibody, human IgG4 S228P, kappa, V domains shown)
VH: B2 VH with Q46K, V53I, A69V, A74I, Y80H, S93T, G100K, D103S, Y106C
VL: DIVLTQSPASLAVSPGQRATISCRASESVDTYGISFMHWYQQKPGQPPKLLIYRASNLESGIPARFSGSGSRTDFTLTINPVETDDVAIYYCQQSKKDPYTFGGGTKLEIKR
B6: LK-RB2-15 (antibody, human IgG4 S228P, kappa, V domains shown)
VH: B2 VH with T40A, Q46K, A74I, N88D, S93T, G100K, D103S, Y106C
VL: B5 VL with P15L, I21F, I89T, D98E
B7: LK-RB2-1 (antibody, human IgG4 S228P, kappa, V domains shown)
VH: QIQLVQSGPELKKPGETVKISCKASGYTFTTYGMSWVKQAPGKGLKWMGWINTYSGVSTYADDFKGRFAFSLETSASTAYLQINNLKNEDTATYFCARRYDYDGYAMDYWGQGTSVTVSS
VL: B4 VL with V21M, Y31F, Y33S, S57A, S71R, A86T, C97Y, Y98D, N99T, Y102P
B8: LK-RB2-13 (antibody, human IgG4 S228P, kappa, V domains shown)
VH: B7 VH with K46Q, S58P, Y60F, E73D, Y100I, D101N, Y102W
VL: B4 VL with I2S, V21M, Y33G, N37S, S57A, C97Y, N99S
B9: LK-RB2-17 (antibody, human IgG4 S228P, kappa, V domains shown)
VH: QIQLVQSGPELKKPGETVKISCKASGYTFTNYGMSWVKQAPGKGLQWMGWINTYSGVPTFADDFRGRFAFSLDTSASTAYLQINSLKNEDTAAYFCARRINWDGYAMDYWGQGTSVTVSS
VL: B4 VL with I2S, V21L, Y33G, N37S, S57A, T59S, C97Y, N99S, Y100F
B10: LK-RB2-2 (antibody, human IgG4 S228P, kappa, V domains shown)
VH: DVKLEESGEGLVKPGGSLKLSCAASGFTFSSYAMSWVRQTPEKRLEWVAYISSGGDYFHYADTVKGRFTISRDNARNTLYLQMSSLKSEDTAMYYCTREGAHYDSSYLAWFAHWGQGTLVTVSA
VL: DIQMTQSPASLSVSVGETVTITCRASENIYSNLAWYQQRQGKSPQLLVYAATNLADGVPSRFSGSGSGTQYSLKINSLQSEDFGSYYCQQFWDNPLTFGAGTKLELKR
B11: LK-RB2-7 (antibody, human IgG4 S228P, kappa, V domains shown)
VH: B10 VH with E5V, K43M, Y57H, H59Y, N77S, H102S, S106N, Y107F, H113Y
VL: B10 VL with R39K, Q40E, A50G, Q90N, N94I
B12: LK-RB2-18 (antibody, human IgG4 S228P, kappa, V domains shown)
VH: EVQLQQSGPELVKPGTSVKISCKASGYTFTDYYMNWVKQSHGKSLEWIGDINPNNGGTSYNQKFKGKATLTVDKSSSTAYMELRSLTSEDSAVFYCARSGTTVVGTYWYFDVWGTGTTVTVSS
VL: B10 VL with R39K, A50G, Q90H, N94T, L96F, A100S, L106I
B13: LK-RB2-9 (antibody, human IgG4 S228P, kappa, V domains shown)
VH: DVQLQESGPGLVKPSQSLSLTCSVTGYSITSGYYWNWIRQFPGNKLEWMGYIGYDGNNNYNPSLKNRISITRDTSKNQFFLKLNSLTTEDTATYYCAREGSTMVTSWFAYWGQGTLVTVSA
VL: B10 VL with R39K, A50G, S65R, G68D, Q90H, N94T, L96Y, A100G, L106I
B14: LK-RB2-4 (antibody, human IgG4 S228P, kappa, V domains shown)
VH: EVQLVESGGDLVKPGGSLKLSCAASGFTFSNYGMSWVRQTPDKRLEWVATISSGGSYTFYPDSVKGRFTISRDNAKNTLYLQMSSLKSEDTALYYCARDYYYGKTIEGYFDYWGQGTTLTVSS
VL: DIQMTQTTSSLSASLGDRVTISCRANQDISNYLNWYQQKPDGTVKLLIYYTSRLHSGVPSRFSGSGSGTDYSLTISDLEQEDIATYFCQQGNTLPWTFGGGTKLEIKR
B15: LK-RB2-14 (antibody, human IgG4 S228P, kappa, V domains shown)
VH: QVQLKQSGPGLVQPSQSLSITCTVSGFSLTSYGVHWVRQSPGKGLEWLGVIWRGGSTDYNAAFMSRLSITKDNSKSQVFFKMNSLQADDTAIYYCAKNEGDSTVVAWYFDVWGTGTTVTVSS
VL: DIQMTQTTSSLSASLGDRVTISCSASQGISNYLNWFQQKPDGTVKLLIYYTSSLHSGVPSRFSGSGSGTDYSLTISNLEPEDIATYYCQQYSKLPLTFGAGTKLELKR
B16: LK-RB2-19 (antibody, human IgG4 S228P, kappa, V domains shown)
VH: QVQLQQPGAELVKPGASVKLSCKASGYTFTSYWMHWVKQRPGQGLEWIGMIHPNSGGTNYNEKFKSKATLTVDKSSSTAYMQFSSLTSEDSAVYYCARCTVVALYYALDYWGQGTSVTVSS
VL: QIVLSQSPAILSASPGEKVTMTCRATSRVSYIHWFQQKPGSSPKPWIYVTSNLASGVPARFSGSGSGTSYSLTISKLEAEDVATYYCQQWSTNPLTFGAGTKLELKR
B17: LK-RB2-3 (antibody, human IgG4 S228P, kappa, V domains shown)
VH: QLQLQQSDAELVKPGASVKISCKVSGYSFTDHTIHWMKQRPEQGLEWIGYIYPRDGSTKENEKFTGKATLTADKSSSTAYMQLTSLTSEDSAVYFCTGSGFDYWGQGTSLTVSS
VL: DIKMTQSPSSMYASLGERVTITCKASQDIKSYLSWFQQKPGKSPKTLIYRANRLVDGVPSRFSGSGSGQDYSLTINSLEYEDMEIYYCLQYDEFPYTFGGGTKLEIKR
B18: LK-RB2-20 (antibody, human IgG4 S228P, kappa, V domains shown)
VH: QVQLKQPGAERVKPGASVKMSCKASGYTFTRYWITWVKQRPGQGLEWIGDIYPGSATTNYNEKFKSKATLTEDTSSSTAYMQLSSLTSEDSAVYYCARSGDYSNSNYAMDYWGQGTSVTVSS
VL: NIEMTQSPKSMSMAVGERVTLSCKASENVGTYVSWYQQKPEQSPKLLIYGASNRNTGVPDRFTGSGSATDFTLTISSVQAEDLADYHCGQSYSYPFTFGSGTKLEIKR
B19: LK-RB1-16 (antibody, human IgG4 S228P, kappa, V domains shown)
VH: QVQLKESGPGLVAPSQSLSITCTVSGFSLISNAISWVRQPPGKGLEWLGVIWGDGNTIYHSALRSRLTISKDNSKSQVFLKLNSLQIDDTATYYCAKANWDGYYFDYWGQGTTLTVSS
VL: DIQMNQSPSSLSASLGDTITITCHASQSVDFWLNWYQQKPGNIPKLLISKASNLHTGVPSRFSGSGSGTTFTLTISSLQPEDIATYYCQQGQSYPLTFGSGTKLEIKR
notes: Anti-LILRB1 antibody from mouse hybridoma; parental antibody of LK-RB1-16.h1 to h3
B20: LK-RB1-16.h2 (antibody, human IgG4, kappa, V domains shown)
VH: QVQLQESGPGLVKPSETLSLTCTVSGFSLISNAISWIRQPPGKGLEWLGVIWGDGNTIYHSALRSRLTISKDTSKNQVFLKLSSVTAADTAVYYCAKANWDGYYFDYWGQGTTVTVSS
VL: DIQMTQSPSTLSASVGDRVTITCHASQSVDFWLNWYQQKPGKAPKLLIYKASNLHTGVPSRFSGSGSGTEFTLTISSLQPDDFATYYCQQGQSYPLTFGQGTKLEIKR
notes: Humanized form of LK-RB1-16
B21: LK-RB1-16.h3 (antibody, human IgG4, kappa, V domains shown)
VH: B20 VH
VL: B20 VL with Y49S
notes: Humanized form of LK-RB1-16
B22: LK-RB1-16.h1 (antibody, human IgG4, kappa, V domains shown)
VH: B20 VH with L67V, V78F, F79S
VL: B20 VL
notes: Humanized form of LK-RB1-16

Each binder was assayed against T1, human LILRB1 expressed on CHOK1 cells (CHOK1-hLILRB1) (human, UniProt Q8NHL6 24-650) (assay: FACS binding to CHOK1-hLILRB1 cells).
T1 construct: whole, on cells; also called CHOK1-LILRB1
T1 sequence (Q8NHL6 24-650): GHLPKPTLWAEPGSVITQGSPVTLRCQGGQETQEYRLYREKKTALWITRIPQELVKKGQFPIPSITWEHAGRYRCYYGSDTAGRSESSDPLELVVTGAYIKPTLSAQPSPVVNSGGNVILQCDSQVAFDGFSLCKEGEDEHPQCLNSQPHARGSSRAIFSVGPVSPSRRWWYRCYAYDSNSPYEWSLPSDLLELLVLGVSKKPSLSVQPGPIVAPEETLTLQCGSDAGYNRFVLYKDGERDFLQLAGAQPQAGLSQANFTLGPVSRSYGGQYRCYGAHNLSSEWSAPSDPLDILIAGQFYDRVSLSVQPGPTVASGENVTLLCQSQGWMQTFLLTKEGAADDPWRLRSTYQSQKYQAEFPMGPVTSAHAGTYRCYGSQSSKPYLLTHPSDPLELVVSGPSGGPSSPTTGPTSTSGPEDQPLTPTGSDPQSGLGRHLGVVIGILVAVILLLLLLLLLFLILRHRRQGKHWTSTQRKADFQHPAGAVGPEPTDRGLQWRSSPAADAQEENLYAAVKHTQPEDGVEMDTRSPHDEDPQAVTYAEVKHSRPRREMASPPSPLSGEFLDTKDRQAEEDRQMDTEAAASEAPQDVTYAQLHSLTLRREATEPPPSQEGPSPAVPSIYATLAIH

Row | binding result | EC50 | Binder
1 | no binding | – | B1
2 | – | 1.48 nM | B2
3 | no binding | – | B3

The binders below were run against T2, human LILRB2 expressed on CHOK1 cells (CHOK1-hLILRB2) (human, UniProt Q8N423 22-597) (assay: FACS binding to CHOK1-hLILRB2 cells).
T2 construct: whole, on cells; also called CHOK1-LILRB2
T2 sequence (Q8N423 22-597): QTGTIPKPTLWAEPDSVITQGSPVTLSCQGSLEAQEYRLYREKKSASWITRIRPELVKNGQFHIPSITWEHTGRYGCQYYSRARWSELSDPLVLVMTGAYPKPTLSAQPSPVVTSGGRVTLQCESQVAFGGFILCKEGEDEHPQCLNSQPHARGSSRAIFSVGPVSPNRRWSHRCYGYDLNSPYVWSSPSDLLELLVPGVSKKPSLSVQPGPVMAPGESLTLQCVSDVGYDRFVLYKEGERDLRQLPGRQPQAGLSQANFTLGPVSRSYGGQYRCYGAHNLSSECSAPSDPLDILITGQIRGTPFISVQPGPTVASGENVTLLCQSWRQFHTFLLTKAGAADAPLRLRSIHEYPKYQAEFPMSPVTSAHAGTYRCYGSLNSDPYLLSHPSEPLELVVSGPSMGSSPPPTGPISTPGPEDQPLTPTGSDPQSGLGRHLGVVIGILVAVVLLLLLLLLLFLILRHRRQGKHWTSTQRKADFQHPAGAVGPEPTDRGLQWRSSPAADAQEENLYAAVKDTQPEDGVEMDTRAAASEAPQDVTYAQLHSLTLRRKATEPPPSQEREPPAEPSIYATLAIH

Row | EC50 | Binder
4 | 0.37 nM | B1
5 | 0.3 nM | B2
6 | 0.15 nM | B3

The binders below were run against T2, human LILRB2 expressed on CHOK1 cells … (assay: cell based RBA, flow cytometry: blocking of HLA-G binding to CHOK1-hLILRB2 cells).

Row | EC50 | Top Inhibition | Binder
7 | 0.157 nM | 80.1% | B1
8 | 0.0673 nM | 81.6% | B2
9 | 0.0889 nM | 68.7% | B3

These binders were tested against T3, human LILRB2 (human, UniProt Q8N423 22-460, limits assumed) (assay: Octet off-rate ranking;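 also: antibody dissociation rate constants against cynomolgus LILRB2 plus human LILRB1, LILRB2, LILRA1 and LILRA2, measured on an Octet instrument to rank binding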).
T3 construct: also called hLILRB2
T3 sequence (Q8N423 22-460 limits assumed): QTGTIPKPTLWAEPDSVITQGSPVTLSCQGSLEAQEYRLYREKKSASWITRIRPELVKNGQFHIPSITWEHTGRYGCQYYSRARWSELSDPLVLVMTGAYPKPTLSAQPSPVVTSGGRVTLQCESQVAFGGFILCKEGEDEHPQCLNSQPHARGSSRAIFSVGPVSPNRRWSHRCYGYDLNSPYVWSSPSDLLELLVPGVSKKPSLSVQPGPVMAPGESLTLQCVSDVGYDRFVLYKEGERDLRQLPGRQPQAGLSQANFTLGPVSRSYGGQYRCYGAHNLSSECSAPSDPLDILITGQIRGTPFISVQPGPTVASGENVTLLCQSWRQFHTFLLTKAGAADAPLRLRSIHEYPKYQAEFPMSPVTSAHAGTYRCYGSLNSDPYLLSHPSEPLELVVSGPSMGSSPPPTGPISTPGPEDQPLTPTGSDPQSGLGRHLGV
Description: Binding affinity of anti-LILRB1 and anti-LILRB2 antibodies against human LILRB1, LILRB2, LILRA1, LILRA2 and cynomolgus LILRB2 was ranked by measuring dissociation rate constant (Kdis) using the Octet system.

Row | koff | Binder
10 | 0.00167 s⁻¹ | B4
11 | 0.000662 s⁻¹ | B5
12 | 6.22e-05 s⁻¹ | B6
13 | 0.00341 s⁻¹ | B7
14 | 0.00304 s⁻¹ | B8
15 | 0.000926 s⁻¹ | B9
16 | 0.000757 s⁻¹ | B10
17 | 0.0014 s⁻¹ | B11
18 | 0.000174 s⁻¹ | B12
19 | 0.00135 s⁻¹ | B13
20 | 0.000157 s⁻¹ | B14
21 | 0.000302 s⁻¹ | B15
22 | 0.002 s⁻¹ | B16
23 | 3.91e-05 s⁻¹ | B17
24 | 0.000895 s⁻¹ | B18

Each binder was assayed against T4, human LILRB1-his (human, UniProt Q8NHL6 24-458, limits assumed) (assay: SPR (Biacore 8K), antibody captured via Fc, LILRB1-his as analyte, 1:1 model).
T4 construct: Analyte of the Biacore run; not shown: His tag
T4 sequence (Q8NHL6 24-458 limits assumed): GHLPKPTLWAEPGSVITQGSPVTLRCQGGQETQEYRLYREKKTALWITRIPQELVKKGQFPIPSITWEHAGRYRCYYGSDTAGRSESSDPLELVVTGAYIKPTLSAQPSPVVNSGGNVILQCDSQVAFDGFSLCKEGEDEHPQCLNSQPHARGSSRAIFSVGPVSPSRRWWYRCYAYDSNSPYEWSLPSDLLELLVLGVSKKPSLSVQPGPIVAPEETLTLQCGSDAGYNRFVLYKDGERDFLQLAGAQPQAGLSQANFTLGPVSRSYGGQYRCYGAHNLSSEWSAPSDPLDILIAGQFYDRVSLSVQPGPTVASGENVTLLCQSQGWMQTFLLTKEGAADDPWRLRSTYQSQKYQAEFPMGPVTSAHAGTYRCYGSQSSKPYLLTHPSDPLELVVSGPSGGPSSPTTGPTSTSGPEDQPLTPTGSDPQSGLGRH

Row | Kd | koff | kon | Binder
25 | 0.194 nM | 0.000108 s⁻¹ | 556000 M⁻¹ s⁻¹ | B19
26 | 0.235 nM | 0.000112 s⁻¹ | 476000 M⁻¹ s⁻¹ | B20
27 | 0.24 nM | 0.000107 s⁻¹ | 444000 M⁻¹ s⁻¹ | B21
28 | 0.507 nM | 0.0002 s⁻¹ | 394000 M⁻¹ s⁻¹ | B22
